The experiment concerns the target PP2A regulatory subunit B56γ (human (endogenous in human HEK TER cells)), Q13362. The experiment is described as follows: anti-FLAG co-IP from HEK TER cells, immunoblot, densitometry; +++ >90%, ++ 50-90%, + <50%. As to conditions: remark: other sources report otherwise. (A western blot detects proteins with antibodies after separation by electrophoresis.)

Chain of PP2A regulatory subunit B56γ (human (endogenous in human HEK TER cells)), Q13362 (Q13362 whole entry): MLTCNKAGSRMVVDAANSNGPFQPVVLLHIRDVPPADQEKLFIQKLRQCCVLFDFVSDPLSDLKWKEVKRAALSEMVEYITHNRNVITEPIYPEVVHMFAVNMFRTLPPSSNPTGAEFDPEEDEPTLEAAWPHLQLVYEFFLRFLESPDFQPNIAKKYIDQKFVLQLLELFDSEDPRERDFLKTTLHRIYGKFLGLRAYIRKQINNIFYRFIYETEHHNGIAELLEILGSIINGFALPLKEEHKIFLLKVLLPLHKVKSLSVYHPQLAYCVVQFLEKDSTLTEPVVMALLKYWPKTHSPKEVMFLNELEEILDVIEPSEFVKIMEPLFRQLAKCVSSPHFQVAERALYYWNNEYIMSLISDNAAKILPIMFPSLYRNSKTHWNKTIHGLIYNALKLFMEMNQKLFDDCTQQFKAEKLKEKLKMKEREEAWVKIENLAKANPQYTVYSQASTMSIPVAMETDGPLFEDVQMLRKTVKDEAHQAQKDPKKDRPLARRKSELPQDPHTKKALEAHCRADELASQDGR

B1: wild type (WT) FLAG epitope-tagged version of PP2A Aβ, P30154 1-601 (protein, not shown: small tags and cut ends)
chain: MAGASELGTGPGAAGGDGDDSLYPIAVLIDELRNEDVQLRLNSIKKLSTIALALGVERTRSELLPFLTDTIYDEDEVLLALAEQLGNFTGLVGGPDFAHCLLPPLENLATVEETVVRDKAVESLRQISQEHTPVALEAYFVPLVKRLASGDWFTSRTSACGLFSVCYPRASNAVKAEIRQQFRSLCSDDTPMVRRAAASKLGEFAKVLELDSVKSEIVPLFTSLASDEQDSVRLLAVEACVSIAQLLSQDDLETLVMPTLRQAAEDKSWRVRYMVADRFSELQKAMGPKITLNDLIPAFQNLLKDCEAEVRAAAAHKVKELGENLPIEDRETIIMNQILPYIKELVSDTNQHVKSALASVIMGLSTILGKENTIEHLLPLFLAQLKDECPDVRLNIISNLDCVNEVIGIRQLSQSLLPAIVELAEDAKWRVRLAIIEYMPLLAGQLGVEFFDEKLNSLCMAWLVDHVYAIREAATNNLMKLVQKFGTEWAQNTIVPKVLVMANDPNYLHRMTTLFCINALSEACGQEITTKQMLPIVLKMAGDQVANVRFNVAKSLQKIGPILDTNALQGEVKPVLQKLGQDEDMDVKYFAQEAISVLALA
With B1, the binding level (percent, co-immunoprecipitation densitometry) is over 90%.

The values above are taken from patent US20110306057A1.
